Source: paper doi:10.1101/2025.03.09.642192 (2025)

Assays:
[1] = target: T1, purified hexon protein from ChAdOx1 (chimpanzee adenovirus Y25 (ChAdOx1)); assay: SPR
T1 chain: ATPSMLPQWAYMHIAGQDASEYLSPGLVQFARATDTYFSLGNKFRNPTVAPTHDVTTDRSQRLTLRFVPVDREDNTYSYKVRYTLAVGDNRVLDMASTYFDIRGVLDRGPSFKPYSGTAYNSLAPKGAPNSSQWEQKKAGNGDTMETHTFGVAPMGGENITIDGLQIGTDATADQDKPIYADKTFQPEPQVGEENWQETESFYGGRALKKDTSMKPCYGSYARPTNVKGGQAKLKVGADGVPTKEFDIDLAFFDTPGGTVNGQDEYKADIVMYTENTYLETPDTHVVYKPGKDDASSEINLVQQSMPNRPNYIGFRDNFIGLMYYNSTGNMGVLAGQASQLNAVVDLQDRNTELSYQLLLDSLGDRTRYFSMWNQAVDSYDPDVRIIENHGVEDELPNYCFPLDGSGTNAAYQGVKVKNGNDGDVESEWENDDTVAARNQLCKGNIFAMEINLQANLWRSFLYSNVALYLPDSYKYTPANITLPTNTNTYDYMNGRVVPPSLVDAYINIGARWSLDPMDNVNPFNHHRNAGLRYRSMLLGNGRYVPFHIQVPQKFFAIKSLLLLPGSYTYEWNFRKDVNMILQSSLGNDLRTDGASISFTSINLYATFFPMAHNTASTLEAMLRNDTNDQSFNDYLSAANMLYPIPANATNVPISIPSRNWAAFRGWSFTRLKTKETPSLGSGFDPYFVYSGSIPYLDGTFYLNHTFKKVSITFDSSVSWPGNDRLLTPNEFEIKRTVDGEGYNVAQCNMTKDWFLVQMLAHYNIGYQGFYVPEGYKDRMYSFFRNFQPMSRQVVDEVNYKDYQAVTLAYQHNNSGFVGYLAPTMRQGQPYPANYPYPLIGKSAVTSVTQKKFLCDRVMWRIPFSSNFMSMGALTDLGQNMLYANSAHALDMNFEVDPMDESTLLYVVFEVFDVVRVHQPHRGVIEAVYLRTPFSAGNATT

[2] = target: T2, HAdV-C5 hexon protein (HAdV-C5, UniProt P04133 1-952); assay: SPR
T2 chain: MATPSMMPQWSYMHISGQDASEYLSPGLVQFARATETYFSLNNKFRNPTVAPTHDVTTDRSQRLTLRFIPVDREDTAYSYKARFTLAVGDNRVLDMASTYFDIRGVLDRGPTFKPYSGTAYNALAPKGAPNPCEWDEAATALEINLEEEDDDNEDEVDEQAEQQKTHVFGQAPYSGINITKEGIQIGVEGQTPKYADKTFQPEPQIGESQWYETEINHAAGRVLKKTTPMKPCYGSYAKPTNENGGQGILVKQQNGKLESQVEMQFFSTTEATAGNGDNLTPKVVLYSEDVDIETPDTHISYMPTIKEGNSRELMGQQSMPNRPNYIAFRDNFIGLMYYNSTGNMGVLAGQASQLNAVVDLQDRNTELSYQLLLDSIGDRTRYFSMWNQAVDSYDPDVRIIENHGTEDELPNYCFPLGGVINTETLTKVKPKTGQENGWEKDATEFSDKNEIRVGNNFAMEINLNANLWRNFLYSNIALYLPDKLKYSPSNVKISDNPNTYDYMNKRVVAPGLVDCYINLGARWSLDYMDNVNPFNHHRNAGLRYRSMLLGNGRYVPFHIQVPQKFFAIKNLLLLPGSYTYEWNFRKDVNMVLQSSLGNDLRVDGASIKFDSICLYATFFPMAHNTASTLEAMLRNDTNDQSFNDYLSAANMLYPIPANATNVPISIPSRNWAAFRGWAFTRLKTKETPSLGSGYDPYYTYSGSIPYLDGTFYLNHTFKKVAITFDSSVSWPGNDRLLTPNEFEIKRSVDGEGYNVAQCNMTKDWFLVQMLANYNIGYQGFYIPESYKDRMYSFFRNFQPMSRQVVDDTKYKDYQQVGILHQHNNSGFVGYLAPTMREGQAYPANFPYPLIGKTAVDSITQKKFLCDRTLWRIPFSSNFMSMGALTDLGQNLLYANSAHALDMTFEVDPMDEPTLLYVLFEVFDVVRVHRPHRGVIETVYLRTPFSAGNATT

B1: platelet factor 4 (PF4) (natural protein)
chain: EAEEDGDLQCLCVKTTSQVRPRHITSLEVIKAGPHCPTAQLIATLKNGRKICLDLQAPLYKKIIKKLLES
koff [1]: 0.0106 s⁻¹
koff [2]: 0.0213 s⁻¹
